Test results taken from patent US20140322242A1, “MATERIALS AND METHODS FOR THE PREVENTION AND TREATMENT OF CANCER” (Icahn School of Medicine at Mount Sinai, priority 2010, published 2014).

Legend:
murine fetal neurons = test: Neurite outgrowth in fetal neuronal cultures; assay type: cell-based, mouse; settings: G-CSF, cultivation for 6 days
Procedure: To evaluate neurite growth, cultures were fixed for 10 minutes at −20° C. with 5% glacial acetic acid/95% ethanol and then incubated with an anti-phosphorylated NF-H antibody (Sigma, clone NE14) and a rabbit anti-microtubule-associated protein-2 antibody (Chemicon), followed by Alexafluor488-conjugated goat anti-mouse antibody and Alexafluor568-conjugated goat anti-rabbit antibody (Molecular probes). For G-CSFR staining, mouse fetal neurons in culture were fixed with methanol and then incubated with a rabbit anti-G-CSFR (Santa-Cruz biotechnology, Santa Cruz, Calif.) and Alexafluor568-conjugated goat anti-rabbit antibody (Molecular probes). Neurite outgrowth was analyzed objectively from 40 random fields (field area=0.6 mm^2) per growth condition using the “Neurite Outgrowth” module of Metamorph software (MDSAT).
Neuronal cultures were prepared from embryonic day 15 fetal neocortex as described in Dobrenis et al., J Neurosci. Res. 82(3):306-315 (2005), incorporated herein by reference. Briefly, after enzymatic and mechanical tissue dissociation, cells were plated at 2.5×10^4/cm^2 (day 0) and treated with 20 μg/ml 5-fluoro-2′ deoxyuridine and 50 μg/ml uridine at day 4 for 24 hours to eliminate glial growth. At day 1, cultures were maintained in serum-free medium and incubated with G-CSF at different concentrations (0, 500, 1000 ng/ml) until day 7.

healthy prostate = test: Healthy (tumor-free) prostate: nerve density, epithelial cell proliferation, apoptosis, Chrm1 expression; assay type: in vivo, mouse
Procedure: (§1) Upon sacrifice, mouse prostate tissues were immersed in OCT medium (Tissue Teck®). Five-micrometer frozen sections were stained with hematoxylin-eosin (H&E). For immunofluorescence, unstained prostate sections were fixed with acetone or methanol. For staining of nerves, fixed sections were incubated in H2O2 to quench endogenous peroxidase and non-specific binding was blocked with goat serum in bovine serum albumin (BSA) solution and the avidin/biotin blocking kit (Vector Laboratories, Burlingame, Calif.). Sections were incubated with a rabbit anti-TH antibody (Millipore, Billerica, Mass.), or anti-VAChT antibody (Phoenix Pharmaceuticals, Inc., Burlingame, Calif.), or anti-NF-L antibody (Millipore), or anti-NF-H antibody (Abcam, Cambridge, Mass.) and then with a secondary biotinylated goat anti-rabbit antibody (Vector Laboratories). Signal was amplified using the Vectastain Elite ABC Kit (Vector Laboratories) and visualized using the Tyramide Signal Amplification kit for TRITC (PerkinElmer, Boston, Mass.).
(§2) For proliferative cell quantification, sections were incubated with a rabbit polyclonal anti-Ki67 (Abcam) and then Alexafluor 568-conjugated goat anti-rabbit antibody (Molecular Probes, Carlsbad, Calif.).
For apoptotic cell quantification, prostate sections were fixed with 4% paraformaldehyde (PFA) and stained with the Mebstain Apoptosis Kit according to manufacturer's recommendations (MBL International, Woburn, Mass.). Basement membranes were stained with a rat polyclonal anti-α2laminin antibody (Abcam) followed by Alexafluor647-conjugated goat anti-rat antibody (Molecular Probes).
Gene expression levels were analyzed from RNA extracted, using the TRIzol solution (Invitrogen, Carlsbad, Calif.), from PC-3, DU145, LNCaP cell lines or prostates from Balb/c nu/nu mice by quantitative real-time PCR, as described previously (Mendez-Ferrer, Nature, 452:442-447 (2008)).

[1] = test system: prostate cancer in cMyc mice; test: cMyc transgenic mouse model of prostate cancer (mPIN, invasive cancer zones); assay type: in vivo; settings: G-CSF; 11 weeks of age
Procedure: To investigate further the activity of G-CSF on tumor development using a genetic mouse model, transgenic mice expressing human cMyc under the ARR2/probasin promoter expressed specifically in the prostate (hereafter cMyc mice) were evaluated. This transgenic model leads to the complete penetrance of mouse prostatic intraepithelial neoplasia (mPIN) from postnatal week 2, progressing to invasive adenocarcinomas between 3 to 6 months of age (FIG. 2m). […] The development of invasive cancer was associated with a broad infiltration of NF-L+ neo-fibers by comparison with control animals (FIG. 2o). Thus, the increased tumor/normal epithelial cell proliferation following G-CSF administration is associated with (i.e., is correlated to) the development of new nerve fibers in the primary tumor. Accordingly, a method of treating cancer in a subject such as a human patient or non-human animal (e.g., non-human mammal) comprises administering a prophylactically or therapeutically effective amount of an inhibitor of NF-L+ neo-fibers. In some embodiments, the method comprises administering a prophylactically or therapeutically effective amount of an inhibitor of G-CSF.
(§3) Human tumors were induced by orthotopic surgical implantations of 1×10^5 PC-3luc cells into six- to eight-week-old Balb/c nu/nu mice. Ten days after cell injection (day 0), the animals were randomized into the different groups and received the appropriate drugs, as indicated. 6OHDA or vehicle was injected at day 0 (100 mg/kg) and day 2 (250 mg/kg), and human recombinant G-CSF treatment was begun on day 4 (Amgen, 250 μg/kg/day, every 12 hours, 8 divided doses, i.p., in 5% dextrose). A second cycle was administered eight weeks after graft and animals were sacrificed three weeks after the last injection of G-CSF (i.e., 11 weeks after graft). In other experiments, 2×10^5 PC-3luc cells were orthotopically injected into nu/nu Adrβ2^tm1Bkk/J+/+ Adrβ3^tm1Lowl/J+/+, nu/nu Adrβ2^tm1Bkk/J−/−, nu/nu Adrβ3^tm1Lowl/J−/− and nu/nu Adrβ2^tm1Bkk/J−/− Adrβ3^tm1Lowl/J−/−. In selected experiments, 2×10^6 LNCaP-luc cells were injected in nu/nu Adrβ2^tm1Bkk/J+/+ Adrβ3^tm1Lowl/J+/+ and nu/nu Adrβ2^tm1Bkk/J−/− Adrβ3^tm1Lowl/J−/− mice. For the transgenic model, one-, two- or five-month-old c-Myc mice were injected with 6OHDA or surgically sympathectomized according to protocols described above and sacrificed 30 days later.
To ascertain the role of sympathetic innervation in tumor initiation using a genetic model, the effect of chemical or surgical sympathectomy on prostate cancer in cMyc mice was evaluated. For this study, transgenic cMyc mice expressing human c-Myc under the ARR2/probasin promoter expressed specifically in the prostate (AAR2/Pbsn-MYC) were used. This transgenic model leads to the complete penetrance of mouse prostatic intraepithelial neoplasia (mPIN) from postnatal week 2, progressing to invasive adenocarcinomas between 3 to 6 months of age (FIG. 6e). To this end, mice were chemically sympathectomized one month prior to histological analyses.
Disease progression was monitored by bioluminescence scanner. […] Mice were sacrificed at week 10.

PC-3luc cells [2] = test: PC-3luc cell proliferation / cytotoxicity in vitro (MTT); assay type: cell-based, human; settings: G-CSF, 96 hours, three concentrations
Procedure: A cell proliferation assay was performed on human PC-3 prostate tumor cells after 96 hours of treatment by G-CSF at three different concentrations by comparison with human leukemic cells (HL-60 and U937). Cell proliferation was quantified by a cell viability assay using MTT (3-[4,5-dimethylthiazole-2-yl]-2,5-diphenyltetrazolium bromide (Sigma). The percentage of viable cells was calculated by comparing the optical density (OD) of the treated samples with those incubated with vehicle. Methods were carried out as described by Magnon, et al., Cancer Res, 65, 4353-61 (2005); incorporated herein by reference in its entirety.

PC-3luc cells [3] = test: Xenogeneic orthotopic PC-3luc prostate tumor model in nude mice (bioluminescence, immunofluorescence); assay type: in vivo, Balb/c nu/nu mice
Procedure: The microenvironment of a developing tumor is important in cancer development and metastasis. A xenogeneic orthotopic model of prostate cancer was established to provide a minimally disruptive microenvironment for this cancer in live mice.
In vivo and ex vivo bioluminescence imaging was performed and analyzed using an IVIS imaging system 200 series (Xenogen, Caliper Life Sciences, Hopkinton, Mass.). Bioluminescent signal was induced by i.p. injection of D-luciferin (150 mg/kg in PBS) 8 minutes prior to in vivo imaging. For ex vivo imaging, D-luciferin (300 mg/kg) was injected 7 minutes prior to necropsy. Organs of interest were immersed in a solution of D-luciferin at 150 mg/ml.
as §1, §2, §3
A second cycle was administered at week four and mice were sacrificed one week later (five weeks after graft). For cholinergic experiments using the nu/nu Chrm1^tm1Stl+/+ and nu/nu Chrm1^tm1Stl−/− animals, mice were sacrificed at week six post-graft. For the survival study, grafted mice were treated as described hereinabove from week 4, every two weeks for up to 25 weeks or until death. Disease progression was monitored by bioluminescence scanner. […] One week later, mice received a second round of treatment and were then sacrificed at month four.

B1: G-CSF: human recombinant granulocyte-colony stimulating factor (Amgen), hematopoietic growth factor (protein, UniProt P09919 31-207, looked up)
Granulocyte …: TPLGPASSLPQSFLLKCLEQVRKIQGDGAALQEKLVSECATYKLCHPEELVLLGHSLGIPWAPLSSCPSQALQLAGCLSQLHSGLFLYQGLLQALEGISPELGPTLDTLQLDVADFATTIWQQMEELGMAPALQPTQGAMPAFASAFQRRAGGVLVASHLQSFLEVSYRVLRHLAQP
axonal outgrowth vs vehicle-treated controls (murine fetal neurons): about 2 fold | dendrite outgrowth (murine fetal neurons): unchanged | proliferation of healthy epithelial cells (anti-Ki67 staining) (healthy prostate; G-CSF treatment): led to proliferation | density of NF-L+ nerve fibers in healthy (tumor-free) prostate (healthy prostate; three weeks after G-CSF, vs PBS control): higher density | Chrm1 expression in the prostate gland (healthy prostate; three weeks after last G-CSF injection, Q-PCR): tended to increase | frequency of mPIN [1]: modest, but significant, effect | number of invasive cancer zones [1]: dramatically increased | proliferation of PC-3luc tumor cells in vitro (PC-3luc cells [2]): could not stimulate | tumor cell proliferation in the primary tumors (Ki67 staining) (PC-3luc cells [3]; G-CSF 250 μg/kg/day, orthotopic PC-3luc): significantly increased | TH+ fibers against 6OHDA-induced damage (PC-3luc cells [3]; G-CSF after 6OHDA): protected | development of primary tumors initially sympathectomized with 6OHDA (PC-3luc cells [3]; G-CSF after 6OHDA): rescued | metastases in 6OHDA-lesioned animals (PC-3luc cells [3]; G-CSF after 6OHDA): did not induce | invasion of inguinal lymph nodes and metastases (PC-3luc cells [3]; G-CSF alone, bioluminescence, week 11): induced | size of the primary tumor (PC-3luc cells [3]; G-CSF treatment): did not affect | infiltration of VAChT+ parasympathetic neo-nerves (PC-3luc cells [3]; immunofluorescence of tumors): selectively promoted | density of newly formed NF-L+ nerves in prostate tumors (PC-3luc cells [3]; vs PBS, 11 weeks): significantly higher densities
